Kd data for one molecule are collected here from article PMC6945063 (2019).

This assay deals with His‐GABARAP‐L2 S87/88D (human, UniProt P60520 1-117, S87/88D | S87/88D). The assay is described as follows: BLI.

B1: GST‐ATG4A (enzyme)
chain: MESVLSKYEDQITIFTDYLEEYPDTDELVWILGKQHLLKTEKSKLLSDISARLWFTYRRKFSPIGGTGPSSDAGWGCMLRCGQMMLAQALICRHLGRDWSWEKQKEQPKEYQRILQCFLDRKDCCYSIHQMAQMGVGEGKSIGEWFGPNTVAQVLKKLALFDEWNSLAVYVSMDNTVVIEDIKKMCRVLPLSADTAGDRPPDSLTASNQSKGTSAYCSAWKPLLLIVPLRLGINQINPVYVDAFKECFKMPQSLGALGGKPNNAYYFIGFLGDELIFLDPHTTQTFVDTEENGTVNDQTFHCLQSPQRMNILNLDPSVALGFFCKEEKDFDNWCSLVQKEILKENLRMFELVQKHPSHWPPFVPPAKPEVTTTGAEFIDSTEQLEEFDLEEDFEILSV
In the case of B1, the Kd amounted to 24 µM.

As usually defined, the Kd is a measure of binding affinity in units of concentration. The low end stands for tighter binding, the high end for weaker binding.
